# Results published in patent publication US20250002588A1.
# Target: ALK-1/BMPR-2 receptor pair of the PathHunter U2Os dimerization cells (DiscoverX 93-0962C3) (UniProt P37023)
# Assay: cell-based or functional assay
# Sequence of ALK-1/BMPR-2 receptor pair of the PathHunter U2Os dimerization cells (DiscoverX 93-0962C3) (P37023 22-503, chain 1 of 2): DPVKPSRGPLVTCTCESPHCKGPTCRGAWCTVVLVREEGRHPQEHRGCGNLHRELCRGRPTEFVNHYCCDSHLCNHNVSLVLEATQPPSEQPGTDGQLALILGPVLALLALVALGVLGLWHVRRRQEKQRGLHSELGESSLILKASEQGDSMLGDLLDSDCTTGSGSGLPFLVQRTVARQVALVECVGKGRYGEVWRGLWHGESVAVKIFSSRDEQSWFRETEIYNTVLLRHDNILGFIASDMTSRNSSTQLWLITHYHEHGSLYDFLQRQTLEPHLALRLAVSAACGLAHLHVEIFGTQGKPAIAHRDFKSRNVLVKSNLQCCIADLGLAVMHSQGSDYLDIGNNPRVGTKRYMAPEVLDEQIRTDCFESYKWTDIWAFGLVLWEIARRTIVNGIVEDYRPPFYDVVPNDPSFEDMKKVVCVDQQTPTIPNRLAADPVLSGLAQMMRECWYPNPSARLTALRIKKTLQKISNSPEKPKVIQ
# Sequence of ALK-1/BMPR-2 receptor pair of the PathHunter U2Os dimerization cells (DiscoverX 93-0962C3) (Q13873 27-1038, chain 2 of 2, further chain): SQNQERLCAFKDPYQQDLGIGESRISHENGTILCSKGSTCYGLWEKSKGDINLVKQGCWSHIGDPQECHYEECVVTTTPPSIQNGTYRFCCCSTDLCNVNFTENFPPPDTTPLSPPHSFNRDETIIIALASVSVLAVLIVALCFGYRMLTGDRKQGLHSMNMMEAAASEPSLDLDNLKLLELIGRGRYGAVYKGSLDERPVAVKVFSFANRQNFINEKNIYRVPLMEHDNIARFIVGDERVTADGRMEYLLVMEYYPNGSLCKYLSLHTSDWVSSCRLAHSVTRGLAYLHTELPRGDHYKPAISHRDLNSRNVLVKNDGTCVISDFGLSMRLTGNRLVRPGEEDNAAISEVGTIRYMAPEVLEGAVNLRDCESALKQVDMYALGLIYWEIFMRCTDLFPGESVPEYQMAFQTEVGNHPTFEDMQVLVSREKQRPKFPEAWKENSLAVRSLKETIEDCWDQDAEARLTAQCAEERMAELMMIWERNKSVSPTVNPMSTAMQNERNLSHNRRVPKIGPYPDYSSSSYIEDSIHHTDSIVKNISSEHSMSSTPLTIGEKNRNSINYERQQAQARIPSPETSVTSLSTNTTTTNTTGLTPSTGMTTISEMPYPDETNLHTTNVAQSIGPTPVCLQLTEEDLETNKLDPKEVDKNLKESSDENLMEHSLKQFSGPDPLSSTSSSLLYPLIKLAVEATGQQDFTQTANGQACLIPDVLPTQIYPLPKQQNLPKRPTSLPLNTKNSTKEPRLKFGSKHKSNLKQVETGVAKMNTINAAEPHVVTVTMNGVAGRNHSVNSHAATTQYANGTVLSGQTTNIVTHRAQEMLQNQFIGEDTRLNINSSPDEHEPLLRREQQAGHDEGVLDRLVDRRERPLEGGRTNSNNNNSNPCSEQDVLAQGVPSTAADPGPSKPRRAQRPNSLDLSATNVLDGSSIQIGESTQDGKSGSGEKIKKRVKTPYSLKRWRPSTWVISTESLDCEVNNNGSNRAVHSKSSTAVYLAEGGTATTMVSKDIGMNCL
% Emax BMP9 [%],EC50 [nM],EMAX (RLU),Binder
100,0.02,2.64e+06,"BMP9 (ligand, UniProt Q9UK05 320-429, looked up) SAGAGSHCQKTSLRVNFEDIGWDSWIIAPKEYEAYECKGGCFFPLADDVTPTKHAIVQTLVHLKFPTKVGKACCVPTKLSPISVLYKDDMGVPTLKYHYEGMSVAECGCR"
97,0.1,2.57e+06,"BMP10 (ligand, UniProt O95393 317-424, looked up) NAKGNYCKRTPLYIDFKEIGWDSWIIAPPGYEAYECRGVCNYPLAEHLTPTKHAIIQALVHLKNSQKASKACCVPTKLEPISILYLDKGVVTYKFKYEGMAVSECGCR"
